Sequences and labels used below:
T1: FcγRIIa R (human, UniProt P12318 34-217)
T1 construct: extracellular domain; also called FcgRIIa R type; 2aR
T1 sequence (looked up): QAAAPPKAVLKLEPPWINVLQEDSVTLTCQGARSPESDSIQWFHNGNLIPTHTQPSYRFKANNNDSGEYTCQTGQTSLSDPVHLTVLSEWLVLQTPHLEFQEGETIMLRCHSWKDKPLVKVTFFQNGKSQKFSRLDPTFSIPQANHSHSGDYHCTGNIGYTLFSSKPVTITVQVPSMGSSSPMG

B1: GpH7-A5/GpH7-B3 variant N325_09D/GpL16-k0 (antibody, human IgG1, kappa)
heavy 1: not shown
heavy 2: not shown
light: DIVMTQSPLSLPVTPGEPASISCQASESLVHSNRNTYLHWYLQKPGQSPQLLIYKVSNRFSGVPDRFSGSGSGTDFTLKISRVEAEDVGVYYCSQNTHVPPTFGQGTKVEIERTVAAPSVFIFPPSDEQLKSGTASVVCLLNNFYPREAKVQWKVDNALQSGNSQESVTEQDSKDSTYSLSSTLTLSKADYEKHKVYACEVTHQGLSSPVTKSFNRGEC
notes: also called He Ab N325_09D
B2: GpH7-A5/GpH7-B3 variant S239_18N/GpL16-k0 (antibody, human IgG1, kappa)
heavy 1: not shown
heavy 2: not shown
light: B1 light
notes: also called He Ab S239_18N
B3: GpH7-A5/GpH7-B3 variant P331_20W/GpL16-k0 (antibody, human IgG1, kappa)
heavy 1: not shown
heavy 2: not shown
light: B1 light
notes: also called He Ab P331_20W
B4: GpH7-A5/GpH7-B3 variant P238_03V/GpL16-k0 (antibody, human IgG1, kappa)
heavy 1: not shown
heavy 2: not shown
light: B1 light
notes: also called He Ab P238_03V
B5: GpH7-A5/GpH7-B3 variant S239_10E/GpL16-k0 (antibody, human IgG1, kappa)
heavy 1: not shown
heavy 2: not shown
light: B1 light
notes: also called He Ab S239_10E
B6: GpH7-A5/GpH7-B3 variant N325_15Y/GpL16-k0 (antibody, human IgG1, kappa)
heavy 1: not shown
heavy 2: not shown
light: B1 light
notes: also called He Ab N325_15Y
B7: GpH7-A5/GpH7-B3 variant P238_04F/GpL16-k0 (antibody, human IgG1, kappa)
heavy 1: not shown
heavy 2: not shown
light: B1 light
notes: also called He Ab P238_04F
B8: GpH7-A5/GpH7-B3 variant P271_08L/GpL16-k0 (antibody, human IgG1, kappa)
heavy 1: not shown
heavy 2: not shown
light: B1 light
notes: also called He Ab P271_08L
B9: GpH7-A5/GpH7-B3 variant N325_10E/GpL16-k0 (antibody, human IgG1, kappa)
heavy 1: not shown
heavy 2: not shown
light: B1 light
notes: also called He Ab N325_10E
B10: GpH7-A5/GpH7-B3 variant P331_15Y/GpL16-k0 (antibody, human IgG1, kappa)
heavy 1: not shown
heavy 2: not shown
light: B1 light
notes: also called He Ab P331_15Y
B11: GpH7-A5/GpH7-B3 variant N325_20W/GpL16-k0 (antibody, human IgG1, kappa)
heavy 1: not shown
heavy 2: not shown
light: B1 light
notes: also called He Ab N325_20W
B12: GpH7-A5/GpH7-B3 variant N325_14T/GpL16-k0 (antibody, human IgG1, kappa)
heavy 1: not shown
heavy 2: not shown
light: B1 light
notes: also called He Ab N325_14T
B13: GpH7-A5/GpH7-B3 variant S267_03V/GpL16-k0 (antibody, human IgG1, kappa)
heavy 1: not shown
heavy 2: not shown
light: B1 light
notes: also called He Ab S267_03V
B14: GpH7-A5/GpH7-B3 variant N325_13S/GpL16-k0 (antibody, human IgG1, kappa)
heavy 1: not shown
heavy 2: not shown
light: B1 light
notes: also called He Ab N325_13S
B15: GpH7-A5/GpH7-B3 variant P238_09D/GpL16-k0 (antibody, human IgG1, kappa)
heavy 1: not shown
heavy 2: not shown
light: B1 light
notes: also called He Ab P238_09D
B16: GpH7-A5/GpH7-B3 variant P331_02A/GpL16-k0 (antibody, human IgG1, kappa)
heavy 1: not shown
heavy 2: not shown
light: B1 light
notes: also called He Ab P331_02A
B17: GpH7-A5/GpH7-B3 variant P331_04F/GpL16-k0 (antibody, human IgG1, kappa)
heavy 1: not shown
heavy 2: not shown
light: B1 light
notes: also called He Ab P331_04F
B18: GpH7-A5/GpH7-B3 variant S239_08L/GpL16-k0 (antibody, human IgG1, kappa)
heavy 1: not shown
heavy 2: not shown
light: B1 light
notes: also called He Ab S239_08L
B19: GpH7-A5/GpH7-B3 variant P238_06M/GpL16-k0 (antibody, human IgG1, kappa)
heavy 1: not shown
heavy 2: not shown
light: B1 light
notes: also called He Ab P238_06M
B20: GpH7-A5/GpH7-B3 variant P331_16H/GpL16-k0 (antibody, human IgG1, kappa)
heavy 1: not shown
heavy 2: not shown
light: B1 light
notes: also called He Ab P331_16H

For the test, the target named is T1, FcγRIIa R. Briefly: SPR Biacore; vs GpH7-A5/GpH7-B3/GpL16-k0 =100.
B1: the He/Con_2aR was 116 % of control.

On to B2, for which the He/Con_2aR is 111 % of control.

For the molecule B3, the He/Con_2aR was 110 % of control.

Turning to B4, the He/Con_2aR is 120 % of control.

As to B5, the He/Con_2aR was 135 % of control.

On to B6, for which the He/Con_2aR is 101 % of control.

For the molecule B7, the He/Con_2aR was 174 % of control.

In the case of B8, the He/Con_2aR was 104 % of control.

B9: the He/Con_2aR was 105 % of control.

With B10, the He/Con_2aR is 112 % of control.

Turning to B11, the He/Con_2aR is 134 % of control.

Consider B12, for which the He/Con_2aR was 105 % of control.

Consider B13, for which the He/Con_2aR was 116 % of control.

B14: the He/Con_2aR was 143 % of control.

B15: the He/Con_2aR was 148 % of control.

Turning to B16, the He/Con_2aR was 106 % of control.

On to B17, for which the He/Con_2aR is 111 % of control.

With B18, the He/Con_2aR was 122 % of control.

With B19, the He/Con_2aR was 139 % of control.

For B20, the He/Con_2aR was 114 % of control.

The values above are taken from patent US20180155451A1 (published 2018).
